B1: HDV Ribozyme (parent)
chain: GGCCGGCAUGGUCCCAGCCUCCUCGCUGGCGCCGGCUGGGCAACAUUCCGAGGGGACCGUCCCCUCGGUAAUGGCGAAUGGGACCCA

These results are taken from the RNAGym collection of RNA variant scans (doi:10.7554/elife.80360).

The series covers variants of B1. The experiment in a line: self-cleavage, relative activity (ratio to wild type); higher = more cleavage; co-transcriptional.
For GGCCGGCAUGGUCCCAGCCUCAUCGCUGGCGCCGGCUGGGCAACAUUCCGAAGGGACCGUCCCCUCGGUAAUGGCGAAUGGGACCCA [C22A G52A], the self-cleavage was determined as 0.292. Then GGCCGGCAUGGUCCCAGCCUCCUCGCUGACGCCGGCUGGGCAACAUUCCGAGGGGACCGUCCCCUCGGUAAUGGUGAAUGGGACCCA [G29A C75U], with 0.0339; and GGCCGGCAUGGUCCCAGCCUCCUCGCUGGCGCCGGCUGGGCAACAUUCCGAGGGGACCGUCCCCUCGUUAAUAGCGAAUGGGACCCA [G68U G73A], with 0.481; and GGCCAGCAUGGUCCCAGCCUCCUCGCUGGCGCCGGCUGGGCAACAUUCCGAGGGGACCGUCCCCUCGGUAAUGGCGAAUGGGACCAA [G5A C86A], with 0.132.

As to GGCCGGCAUGGUCUCAGCCUCCUCGCUGCCGCCGGCUGGGCAACAUUCCGAGGGGACCGUCCCCUCGGUAAUGGCGAAUGGGACCCA [C14U G29C], the self-cleavage turned out to be 0.0941. Regarding GGCCGGCAUGGUCCCAGCCUCCUCGCUGGCGCCGGCUGGGCAACAUUCCGAGGGAACCGUCCCCUCGGUAAUGGCGAAUGGGACCCA [G55A], the self-cleavage was determined as 0.996.

For the variant UGCCGGCAUGGUCCCAGCCUCCUCGCUGGCGCCGGCUGGGCAACAUUCCGAGGGGACCGUCCCCUCGGUAAUGGCGAAUGGGACUCA [G1U C85U], the self-cleavage was determined as 0.321. Then GGCCGGCAUGGUCCCAGCCUCCUCGCUGGCGCCGGCGGGGCAACAUUCCGAGGGGACCGUCCCCUCGGUAAUGGCGGAUGGGACCCA [U37G A77G], with 0.0831; and GGCCGGCAUGGUCCCAGCCUCCUCGCUGGCGCCGGCUGGGCAACAUUCCGAGGGGACCGUCCCCUCAGCAAUGGCGAAUGGGACCCA [G67A U69C], with 0.927.

Regarding GGACGGCAUGGUCCCAGCCUCCUCGCUGGCGCCGGCUGGGCAACAUUCCGGGGGGACCGUCCCCUCGGUAAUGGCGAAUGGGACCCA [C3A A51G], the self-cleavage was found to be 0.444. Then GGUCGGCAUGGUCCCAGCCUCCUCGCUGGCGCCGGCUGGGCAACAGUCCGAGGGGACCGUCCCCUCGGUAAUGGCGAAUGGGACCCA [C3U U46G], with 0.446; and GGCCGGCAAGGUCCCAGCCUCCUCGCUGGCGCCGGCUGGGCAACAUUCCGAGGGGACCGUCCUCUCGGUAAUGGCGAAUGGGACCCA [U9A C63U], with 1.19; and GGCCGGCAUGGUCCCAGCCUCCUCGCUGGCGCCGGCUGGGCAACAUUCCGAGGGGCCCGUCCCCUCGGUAAUGGCGACUGGGACCCA [A56C A78C], with 0.111. Regarding GGCCGGCAUGGUCCCAGCCUCCUCGCUGGCGGCGGCUGGGCAACAUUCCGAGGGUACCGUCCCCUCGGUAAUGGCGAAUGGGACCCA [C32G G55U], the self-cleavage was found to be 0.0911. As for GGCCGGCAUGGUCCCGGCCUCCUCGCUGGCGCCGGCUGGUCAACAUUCCGAGGGGACCGUCCCCUCGGUAAUGGCGAAUGGGACCCA [A16G G40U], the figure is 0.719; as for GGCCGGCAUGGUCCCAGCCUCCUCGCUGGCGCCGGCUGGGCAACAUUCCGAGGGUACCGUCCCCUCGGUAAUGGGGAAUGGGACCCA [G55U C75G], 0.0707. Then GGCCGGCAUGGUCCCAGCCUCCUCGCUGGCGCCGGCUGGGCAACAUUCCGAGGGGACCGUCCCCUCGGUAAUAGCGAAUGGUACCCA [G73A G82U], with 0.151; and GGCCGGCAUGGUCCCAGCCUCCUCUCCGGCGCCGGCUGGGCAACAUUCCGAGGGGACCGUCCCCUCGGUAAUGGCGAAUGGGACCCA [G25U U27C], with 0.107; and GGCCGGCAUGGUCCCAGCCUCCUCGCUGGCGCCAGCUGGGCAACAUUCCGAGGGGACCGUCCCCUCGGUAAUGGCGACUGGGACCCA [G34A A78C], with 0.157. GGCCGGCAUGGUCCCAGCCUCCUCGCUGGCGCCGGCUGGGCAGCAUUCCGAGGGGACCGUCCCCUCGGUAGUGGCGAAUGGGACCCA [A43G A71G]: the self-cleavage was determined as 0.68. Then GGCCGGCAUGGUCCCAGCCUCCUCGCUGGCGCCGGCCGGGCAACAUUCCGAGGGGACCGUCCCCUCGGUAAUGGUGAAUGGGACCCA [U37C C75U], with 0.0997. On to GGCCGGCAUGGUCCCAGCCUCCUCGCCGGCGCCGGCUGGGCAACAUUCCGAGGGGACCGUCCCCUCGGUAUUGGCGAAUGGGACCCA [U27C A71U], for which the self-cleavage turned out to be 0.639.

As to GGCCGCCAUGGUCCCAGCCUCCUCGCUGGCGCCGGCUGGGCAACAUUCCGAGGGGACCGUCCCCUCGGUAAUGGCGAAUGUGACCCA [G6C G81U], the self-cleavage stood at 0.0615. In the case of GGCCGGCAUGGUCCCAGCCUCCUCGCUGGCGCCGGCUGGGCAACAUUCCGAGGGGACCGUCCCCUCGGUACUGGCGAAGGGGACCCA [A71C U79G], the self-cleavage amounted to 0.437.

In the case of GGCCGGCAUGGUCCCAGCCUCCUCGCUGGCGCCUGCUGGGCAACAUUCCGAGGGAACCGUCCCCUCGGUAAUGGCGAAUGGGACCCA [G34U G55A], the self-cleavage was 0.114. As for GGCCGGCAUGGUCCCAGCCUCCUCACUGGCGCUGGCUGGGCAACAUUCCGAGGGGACCGUCCCCUCGGUAAUGGCGAAUGGGACCCA [G25A C33U], the figure is 0.0911; as for GGCCGGCAUGGUCCCAGCCUCCUCGCUGGCGCCGGCUGGGCAACAUUCCGAGGGGUCCGUCCCCUCUGUAAUGGCGAAUGGGACCCA [A56U G67U], 0.988; as for GGCCGGCAUGGUCCCAGCCUCCUCGCUGGCGCCGGCUGGGCAACAUUCCGAGGGGACCGUCCCCCCGGUAAUGGCGAAUGGGGCCCA [U65C A83G], 0.862. CGCCGGCAUGGUCCCAGCCUCCUCGCUGGCGCCGGCUGGGCAACAUUCCGAGGGGACCGUCCCCUCGGUAGUGGCGAAUGGGACCCA [G1C A71G]: the self-cleavage amounted to 0. As for GGCCGGCAUGGACCCAGCCUCCUCGCCGGCGCCGGCUGGGCAACAUUCCGAGGGGACCGUCCCCUCGGUAAUGGCGAAUGGGACCCA [U12A U27C], the figure is 0.35; as for GGCCGGCAUGGUCCCAGCCUCCUCGGUGGCGCCGGCUGGGCAACAUUCCGAGGGGACCGUCCCCUGGGUAAUGGCGAAUGGGACCCA [C26G C66G], 1.1; as for GGCCGGCAUGGUCCCAUCCUCCUCGCUGGCGCCGGCUGGGCAACUUUCCGAGGGGACCGUCCCCUCGGUAAUGGCGAAUGGGACCCA [G17U A45U], 0.244.
